Ends that are not written are not given here.
T1: KDM4A tandem tudor domain (TTD) reader (human, UniProt O75164 895-1011)
T1 construct: KDM4A, human, tandem tudor domain; also called KDM4ATTD
T1 sequence: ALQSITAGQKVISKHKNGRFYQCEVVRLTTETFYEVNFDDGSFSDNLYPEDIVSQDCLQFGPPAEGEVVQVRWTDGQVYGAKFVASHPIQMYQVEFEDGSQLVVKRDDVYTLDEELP

T2: TAF3 PHD reader domain (human, UniProt Q5VWG9 855-915)
T2 sequence: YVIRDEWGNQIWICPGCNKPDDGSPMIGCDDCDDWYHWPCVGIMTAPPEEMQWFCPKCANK

T3: KDM5A PHD3 reader domain (human, UniProt P29375 1609-1659)
T3 construct: KDM5A, human, third PHD zinc finger (PHD3)
T3 sequence: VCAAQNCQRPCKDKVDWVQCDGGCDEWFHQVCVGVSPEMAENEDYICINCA

T4: SGF29 tandem tudor domain (TTD) reader (human, UniProt Q96ES7 115-293)
T4 construct: SGF29, human, tandem tudor domain; also called SGF29TTD
T4 sequence: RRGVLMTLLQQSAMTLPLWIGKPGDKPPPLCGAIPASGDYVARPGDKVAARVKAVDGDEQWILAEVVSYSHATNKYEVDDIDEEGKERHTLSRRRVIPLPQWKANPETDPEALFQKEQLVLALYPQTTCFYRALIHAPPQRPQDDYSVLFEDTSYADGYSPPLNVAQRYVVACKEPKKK

B1: 10-mer histone H3 peptide bearing trimethyllysine at position 4 (H3K4me3) (peptide)
peptide: ARTKQTARKS
modifications: trimethyllysine (Kme3) at position 4
notes: histone H3, residues 1-10, printed as ART(Kme3/KCme3)QTARKS; also called 1–10 H3K4me3; source: synthetic peptide (solid-phase peptide synthesis, preparative HPLC)
B2: 10-mer histone H3 peptide bearing trimethylthialysine at position 4 (H3KC4me3) (peptide)
peptide: ARTCQTARKS
modifications: not fully specified (residue 4)
notes: histone H3, residues 1-10, printed as ART(Kme3/KCme3)QTARKS; position 4 is a cysteine alkylated to trimethylthialysine; The letter C at position 4 stands for the alkylated cysteine (trimethylthialysine), not a free cysteine; also called 1–10 H3KC4me3

How the values were obtained:
Assay in all cases: ITC; 19 injections of histone peptide (0.3–1.2 mM) into reader protein (22–100 µM), 298.15 K, same buffer as used in size exclusion chromatography, one-site fit, 3–5 repeats
Settings in all cases: both partners purified
[1] = target: T1, KDM4A tandem tudor domain (TTD) reader
BPTF PHD reader domain = BPTF PHD reader domain (human, UniProt Q12830 2865-3033)
TAF3 PHD reader domain = target: T2, TAF3 PHD reader domain
KDM5A PHD3 reader domain = target: T3, KDM5A PHD3 reader domain
[2] = target: T4, SGF29 tandem tudor domain (TTD) reader

| Binder | Kd [1] [µM] | dH [1] [kcal/mol] | dH (BPTF PHD reader domain) [kcal/mol] | Kd (TAF3 PHD reader domain) [nM] | dH (TAF3 PHD reader domain) [kcal/mol] | Kd (KDM5A PHD3 reader domain) [nM] | dH (KDM5A PHD3 reader domain) [kcal/mol] | Kd [2] [µM] | dH [2] [kcal/mol] | Kd (BPTF PHD reader domain) [µM] |
| --- | --- | --- | --- | --- | --- | --- | --- | --- | --- | --- |
| B1 | 6.6 ± 0.8 | -13 ± 0.2 | -12.4 ± 0.1 | 84 ± 12 | -10.7 ± 0.1 | 71 ± 8 | -10.7 ± 0.1 | 2.6 ± 0.3 | -8 ± 0.1 |  |
| B2 | 3.1 ± 0.6 | -14.8 ± 0.2 | -9 ± 0.1 | 42 ± 7 | -10.8 ± 0.1 | 150 ± 200 | -9.6 ± 0.1 | 6.1 ± 0.7 | -5.8 ± 0.1 | 3.8 ± 0.5 |

From PMC7221964, “Comparison of Molecular Recognition of Trimethyllysine and Trimethylthialysine by Epigenetic Reader Proteins” (Molecules, 2020)
